# According to patent publication US20250002577A1 (ONCORESPONSE, published 2025):
# Legend:
# [1] = target: T1, recombinant human LILRB2-His (human, UniProt Q8N423 22-461, limits assumed); assay: MSD ELISA, coated antigen, transfection supernatant
# T1 construct: Bought protein; also called LILRB2 protein
# Method: (§1) To confirm binding to human LILRB1 and human LILRB2, transfection supernatants (obtained in Example 2) were evaluated for binding by ELISA. The conditioned media from these transient transfections were assayed for human IgG concentration by AlphaLISA® immunoassay (PerkinElmer, No. AL310C) (Table 4). A plate-based MSD ELISA was performed in which human LILRB1-His or LILRB2-His was immobilized, and binding of transfection supernatants of humanized mAb variants was detected via an anti-human IgG Sulfo-tag-labeled secondary antibody. The IgG1 version of the parental rabbit/human chimera (designated B21A1) transfection served as the benchmark EC₅₀ positive control.
# (§2) Recombinant human and cynomolgus LILRB1 proteins (R&D Systems, No. 8989-T2-050; ACROBiosystems, No. CDJ-C52H3) and recombinant human and cynomolgus LILRB2 proteins (ACROBiosystems, No. LI2-H5220; No. L12-C52H3) were diluted in PBS to 4 μg/mL and added to a multi-array 384-well high-binding plates (MSD, No. L21XA4) at 10 μL/well and incubated at 4° C. overnight. The plates were washed several times with Wash Buffer (0.05% Tween® 20 in PBS), using a microplate washer and then blocked with 70 μL/well of 5% BSA in PBS for 1 hour (h) at room temperature (RT) with shaking at 700 rpm. After blocking, 20 μL/well of anti-LILRB2/LILRB1 antibodies or isotype control were added to the plates, and the plates were sealed and incubated for 2 h at RT with shaking at 700 rpm. After primary antibody binding, plates were washed five times with 70 μL/well of Wash Buffer (0.05% Tween® 20 in PBS) using a microplate washer. Secondary detection antibody (SULFO-TAG™-labeled goat anti-human IgG antibody (MSD, No. R32AJ-1)) was diluted to 4 μg/mL in assay diluent (1% BSA in PBS) and 10 μL/well was added to plates and incubated at RT protected from light for 1 h, with shaking at 700 rpm. Following incubation, plates were washed five times with Wash Buffer, using a microplate washer. After removal of the final wash, 35 μL/well of MSD Gold Read Buffer B (MSD, No. R60AM-4) was added to all wells using a Multidrop combo washer/dispenser, and plates were read using MESO Sector 600MM instrument (MSD) within 5 minutes (min) after addition of Read Buffer. Signals as counts per minute (cpm) were recorded.
# [2] = target: T2, recombinant human LILRB1-His (human, UniProt Q8NHL6 24-458); assay: as above
# T2 construct: Bought protein; also called LILRB1 protein
# Method: as §1, §2
# T1 sequence (Q8N423 22-461 limits assumed): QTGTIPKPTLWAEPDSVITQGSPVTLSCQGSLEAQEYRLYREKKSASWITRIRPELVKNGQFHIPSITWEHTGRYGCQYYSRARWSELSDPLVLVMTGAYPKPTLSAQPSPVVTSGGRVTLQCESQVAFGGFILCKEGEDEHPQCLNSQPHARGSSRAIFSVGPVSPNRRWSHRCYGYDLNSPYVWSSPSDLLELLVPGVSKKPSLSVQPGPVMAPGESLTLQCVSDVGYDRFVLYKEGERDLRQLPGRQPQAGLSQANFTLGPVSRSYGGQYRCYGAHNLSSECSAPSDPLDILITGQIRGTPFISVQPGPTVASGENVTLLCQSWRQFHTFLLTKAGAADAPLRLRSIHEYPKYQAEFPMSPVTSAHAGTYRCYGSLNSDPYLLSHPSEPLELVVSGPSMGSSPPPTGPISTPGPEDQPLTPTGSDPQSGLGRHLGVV
# T2 sequence (Q8NHL6 24-458 limits assumed): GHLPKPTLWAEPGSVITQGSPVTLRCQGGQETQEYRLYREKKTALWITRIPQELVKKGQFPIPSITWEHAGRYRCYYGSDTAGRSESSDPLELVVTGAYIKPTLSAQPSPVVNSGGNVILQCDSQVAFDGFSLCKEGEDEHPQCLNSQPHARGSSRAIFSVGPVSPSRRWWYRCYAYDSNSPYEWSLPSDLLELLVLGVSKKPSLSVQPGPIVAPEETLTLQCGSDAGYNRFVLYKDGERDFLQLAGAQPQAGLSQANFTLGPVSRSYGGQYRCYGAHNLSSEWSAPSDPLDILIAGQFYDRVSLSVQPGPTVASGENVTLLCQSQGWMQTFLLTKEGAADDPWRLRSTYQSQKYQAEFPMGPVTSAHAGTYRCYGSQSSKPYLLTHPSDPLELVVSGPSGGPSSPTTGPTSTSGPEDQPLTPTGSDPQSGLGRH
EC50 [1],EC50 [2],Binder
0.26 ng/mL,4.7 ng/mL,"B21H4-45 (antibody, human IgG4 S228P, kappa, humanized IgG4/kappa, VH4+VL5; transfection supernatant) heavy: not shown light: DIQMTQTPSTVEASVGGTVTITCQASGNIYSFLAWYQQKPGQPPKLLIYTASNLETGVPSRFSGSGSGTEYTLTISGLQSDDAATYYCLGGLYSSDVSYAFGGGTEVVVKRTVAAPSVFIFPPSDEQLKSGTASVVCLLNNFYPREAKVQWKVDNALQSGNSQESVTEQDSKDSTYSLSSTLTLSKADYEKHKVYACEVTHQGLSSPVTKSFNRGEC"
2.63 ng/mL,3.73 ng/mL,"B21A4 (antibody, human IgG4 S228P, kappa, Rabbit/human chimera, human IgG4/kappa; 3 is used here; also called B21A chimera IgG4; Clone B21A4) heavy: not shown light: DIVMTQTPASVEAAVGGTVTINCQASGNIYSFLAWYQQKPGQPPKLLIYTASNLETGVPSRFSGSGSGTEYTLTISGVQCDDAATYYCLGGLYSSDVSYAFGGGTEVVVKRTVAAPSVFIFPPSDEQLKSGTASVVCLLNNFYPREAKVQWKVDNALQSGNSQESVTEQDSKDSTYSLSSTLTLSKADYEKHKVYACEVTHQGLSSPVTKSFNRGEC"
1.01 ng/mL,1.5 ng/mL,"B21H4-13 (antibody, human IgG4 S228P, kappa, humanized IgG4/kappa, VH1+VL3; transfection supernatant) heavy: not shown light: DIVMTQSPSSVSASVGDRVTITCQASGNIYSFLAWYQQKPGKAPKLLIYTASNLETGVPSRFSGSGSGTDFTLTISSLQPEDFATYYCLGGLYSSDVSYAFGGGTKVVIKRTVAAPSVFIFPPSDEQLKSGTASVVCLLNNFYPREAKVQWKVDNALQSGNSQESVTEQDSKDSTYSLSSTLTLSKADYEKHKVYACEVTHQGLSSPVTKSFNRGEC"
2.51 ng/mL,3.88 ng/mL,"B21H4-51 (antibody, human IgG4 S228P, kappa, V domains shown, humanized IgG4/kappa, VH5+VL1; transfection supernatant) VH: QVQLEESGGRLVQPGTSLRLSCAVSGFSLNTYAMTWVRQAPGKGLEWIGIIVASGGTYYASWAKGRFTISRDTSKNTLYLQITSLRAEDTATYFCARGGMGSDWGESLDAFDPWGQGTLVTVSS VL: DIQMTQSPSTLSASVGDRVTITCQASGNIYSFLAWYQQKPGKAPKLLIYTASNLETGVPSRFSGSGSGTEYTLTISSLQPDDFATYYCLGGLYSSDVSYAFGPGTKVEIKR"
2.75 ng/mL,4.85 ng/mL,"B21H4-54 (antibody, human IgG4 S228P, kappa, V domains shown, humanized IgG4/kappa, VH5+VL4; transfection supernatant) VH: QVQLEESGGRLVQPGTSLRLSCAVSGFSLNTYAMTWVRQAPGKGLEWIGIIVASGGTYYASWAKGRFTISRDTSKNTLYLQITSLRAEDTATYFCARGGMGSDWGESLDAFDPWGQGTLVTVSS VL: DVVMTQSPSTVSASVGDRVTLTCQASGNIYSFLAWYQQKPGQPPKLLIYTASNLETGVPDRFSGSGSGTDYTLTISSLQADDFATYYCLGGLYSSDVSYAFGQGTKVEIKR"
1.67 ng/mL,4.7 ng/mL,"B21H4-53 (antibody, human IgG4 S228P, kappa, V domains shown, humanized IgG4/kappa, VH5+VL3; transfection supernatant) VH: QVQLEESGGRLVQPGTSLRLSCAVSGFSLNTYAMTWVRQAPGKGLEWIGIIVASGGTYYASWAKGRFTISRDTSKNTLYLQITSLRAEDTATYFCARGGMGSDWGESLDAFDPWGQGTLVTVSS VL: DIVMTQSPSSVSASVGDRVTITCQASGNIYSFLAWYQQKPGKAPKLLIYTASNLETGVPSRFSGSGSGTDFTLTISSLQPEDFATYYCLGGLYSSDVSYAFGGGTKVVIKR"
1.46 ng/mL,1.3 ng/mL,"B21H4-14 (antibody, human IgG4 S228P, kappa, humanized IgG4/kappa, VH1+VL4; transfection supernatant) heavy: not shown light: DVVMTQSPSTVSASVGDRVTLTCQASGNIYSFLAWYQQKPGQPPKLLIYTASNLETGVPDRFSGSGSGTDYTLTISSLQADDFATYYCLGGLYSSDVSYAFGQGTKVEIKRTVAAPSVFIFPPSDEQLKSGTASVVCLLNNFYPREAKVQWKVDNALQSGNSQESVTEQDSKDSTYSLSSTLTLSKADYEKHKVYACEVTHQGLSSPVTKSFNRGEC"
